Experimental data: US6107104A, “Modulators of anchoring protein function” (ICOS Corporation, priority 1996, dated 2000)

Tested on: PKC
Test: PKC activity assay with EGF receptor peptide substrate
Assay type: biochemical
Description: In order to asses the ability of these peptides to modulate PKC activity, the following assay was performed in the presence and absence of AKAP 79 peptide fragments. PKC [50 nM dissolved in 50 mM tris-HCl (pH 7.4), 5 mM MgCl2 1.2 mM CaCl2, 1 mM DTT, 1 mM EGTA and 100 μg/ml PS] was incubated with EGF receptor peptide substrate (5 μM) at 30° C. for five minutes. Phosphorylation reaction was initiated by addition of 100 μM ^32 P-ATP (500 cpm/pmol) and the reaction allowed to proceed for ten minutes at 30° C. Aliquots of reaction mixture were removed and spotted into P81 filter paper and the reaction terminated by washing the filter paper with excess 75 mM phosphoric acid (three washes for three minutes each). After a final wash in ethanol, the p81 filters were dried and radioactivity was measured by liquid scintillation counting.

effect of incubation with CaM on inhibition of PKC (CaM 15 μM, excess Ca2+): prevented inhibition
IC50 (read-out: IC50 of inhibition of PKC activity): 25 ± 5 nM
B1: recombinant fragment to the first 75 amino acids of AKAP 79: recombinant fragment of AKAP 79, amino acids 1-75 (protein, UniProt P24588 1-75, looked up, fragment)
chain: METTISEIHVENKDEKRSAEGSPGAERQKEKASMLCFKRRKKAAKALKPKAGSEAADVARKCPQEAGASDQPEPT
